Data set [1] addresses T1, WRN (human, UniProt Q14191 1-1432). Kind of data set: EMSA; ATPgS, 4 mM Mg2+; EMSA: 40 mM Tris-HCl pH 8.0, 4 mM MgCl2, 5 mM DTT, 1 mM ATPgS, 0.1 ug BSA in 10 ul, 4 C, 20 min; +10 mM KCl for quadruplexes; 4% gel, 0.5x Tris-glycine pH 8.3. To be noted: protein: recombinant, tags: His6.
Data set [2] deals with T1, WRN. Kind of data set: EMSA; ATPgS, 10 mM KCl; tight, similar to G'2 TeR43; EMSA: 40 mM Tris-HCl pH 8.0, 4 mM MgCl2, 5 mM DTT, 1 mM ATPgS, 0.1 ug BSA in 10 ul, 4 C, 20 min; +10 mM KCl for quadruplexes; 4% gel, 0.5x Tris-glycine pH 8.3. The note with it: protein: recombinant; tags: His6; label: 5'-32P; G4 dimer of 2 strands, described as antiparallel.
The next data set has as its target WRN K577M (human, UniProt Q14191 1-1432, K577M). Kind of data set: EMSA; similar to wild type; EMSA: 40 mM Tris-HCl pH 8.0, 4 mM MgCl2, 5 mM DTT, 1 mM ATPgS, 0.1 ug BSA in 10 ul, 4 C, 20 min; +10 mM KCl for quadruplexes; 4% gel, 0.5x Tris-glycine pH 8.3. To be noted: protein: recombinant; tags: His6; label: 5'-32P; G4 dimer of 2 strands, described as antiparallel. (In general: A gel shift assay detects complexes by their altered migration in electrophoresis.)

For data set [3], the target named is T1, WRN. Kind of data set: EMSA; ATPgS, 4 mM Mg2+, 10 mM KCl; EMSA: 40 mM Tris-HCl pH 8.0, 4 mM MgCl2, 5 mM DTT, 1 mM ATPgS, 0.1 ug BSA in 10 ul, 4 C, 20 min; +10 mM KCl for quadruplexes; 4% gel, 0.5x Tris-glycine pH 8.3. The note with it: protein: recombinant, tags: His6, label: 5'-32P.
A further data set addresses BLM (UniProt P54132 1-1417). Described as above. The note with it: protein: recombinant; tags: C-terminal FLAG; label: 5'-32P; G4 tetramer of 4 parallel strands.

7 molecules from paper PMC3260238, “The Werner Syndrome Protein Is Distinguished from the Bloom Syndrome Protein by Its Capacity to Tightly Bind Diverse DNA Structures” can be followed below.

Residue numbers refer to the chain shown, from its start.

T1 sequence (Q14191 whole entry): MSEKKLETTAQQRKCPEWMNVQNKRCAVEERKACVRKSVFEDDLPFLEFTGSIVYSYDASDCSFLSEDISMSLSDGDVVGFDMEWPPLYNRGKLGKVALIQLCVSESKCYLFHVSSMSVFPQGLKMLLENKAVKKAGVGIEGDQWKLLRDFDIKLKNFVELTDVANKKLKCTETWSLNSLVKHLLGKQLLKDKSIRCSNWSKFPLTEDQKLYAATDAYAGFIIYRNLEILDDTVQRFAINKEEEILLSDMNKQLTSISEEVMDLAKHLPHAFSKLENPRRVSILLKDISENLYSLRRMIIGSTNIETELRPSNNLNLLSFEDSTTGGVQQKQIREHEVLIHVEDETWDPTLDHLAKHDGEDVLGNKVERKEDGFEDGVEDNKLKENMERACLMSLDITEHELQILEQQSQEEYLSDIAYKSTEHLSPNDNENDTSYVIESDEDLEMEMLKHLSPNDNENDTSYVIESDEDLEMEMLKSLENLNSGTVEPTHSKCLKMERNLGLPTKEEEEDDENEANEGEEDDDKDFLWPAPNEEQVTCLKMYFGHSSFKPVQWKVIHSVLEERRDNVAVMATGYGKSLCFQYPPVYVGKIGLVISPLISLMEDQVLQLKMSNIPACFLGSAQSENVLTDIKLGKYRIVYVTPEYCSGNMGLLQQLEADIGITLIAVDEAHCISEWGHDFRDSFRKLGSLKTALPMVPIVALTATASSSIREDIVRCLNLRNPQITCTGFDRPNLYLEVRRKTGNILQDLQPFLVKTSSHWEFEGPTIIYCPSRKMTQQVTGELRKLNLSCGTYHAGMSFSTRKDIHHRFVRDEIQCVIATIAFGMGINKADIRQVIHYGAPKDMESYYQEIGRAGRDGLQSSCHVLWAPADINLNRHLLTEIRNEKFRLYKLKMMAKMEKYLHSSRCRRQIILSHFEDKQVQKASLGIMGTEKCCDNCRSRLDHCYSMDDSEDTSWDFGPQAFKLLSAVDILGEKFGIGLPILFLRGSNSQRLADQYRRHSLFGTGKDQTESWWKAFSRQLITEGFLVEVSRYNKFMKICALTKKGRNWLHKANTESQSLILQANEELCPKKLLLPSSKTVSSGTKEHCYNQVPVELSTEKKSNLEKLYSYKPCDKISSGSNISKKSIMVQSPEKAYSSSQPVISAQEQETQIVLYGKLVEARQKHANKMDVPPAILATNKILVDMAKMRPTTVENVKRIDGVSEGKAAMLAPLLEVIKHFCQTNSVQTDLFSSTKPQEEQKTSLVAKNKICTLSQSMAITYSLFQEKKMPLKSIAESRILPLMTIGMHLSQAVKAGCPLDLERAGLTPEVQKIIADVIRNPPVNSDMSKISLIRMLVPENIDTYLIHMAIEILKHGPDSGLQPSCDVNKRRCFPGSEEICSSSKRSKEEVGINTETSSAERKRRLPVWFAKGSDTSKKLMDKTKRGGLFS
Chain of BLM (P54132 whole entry): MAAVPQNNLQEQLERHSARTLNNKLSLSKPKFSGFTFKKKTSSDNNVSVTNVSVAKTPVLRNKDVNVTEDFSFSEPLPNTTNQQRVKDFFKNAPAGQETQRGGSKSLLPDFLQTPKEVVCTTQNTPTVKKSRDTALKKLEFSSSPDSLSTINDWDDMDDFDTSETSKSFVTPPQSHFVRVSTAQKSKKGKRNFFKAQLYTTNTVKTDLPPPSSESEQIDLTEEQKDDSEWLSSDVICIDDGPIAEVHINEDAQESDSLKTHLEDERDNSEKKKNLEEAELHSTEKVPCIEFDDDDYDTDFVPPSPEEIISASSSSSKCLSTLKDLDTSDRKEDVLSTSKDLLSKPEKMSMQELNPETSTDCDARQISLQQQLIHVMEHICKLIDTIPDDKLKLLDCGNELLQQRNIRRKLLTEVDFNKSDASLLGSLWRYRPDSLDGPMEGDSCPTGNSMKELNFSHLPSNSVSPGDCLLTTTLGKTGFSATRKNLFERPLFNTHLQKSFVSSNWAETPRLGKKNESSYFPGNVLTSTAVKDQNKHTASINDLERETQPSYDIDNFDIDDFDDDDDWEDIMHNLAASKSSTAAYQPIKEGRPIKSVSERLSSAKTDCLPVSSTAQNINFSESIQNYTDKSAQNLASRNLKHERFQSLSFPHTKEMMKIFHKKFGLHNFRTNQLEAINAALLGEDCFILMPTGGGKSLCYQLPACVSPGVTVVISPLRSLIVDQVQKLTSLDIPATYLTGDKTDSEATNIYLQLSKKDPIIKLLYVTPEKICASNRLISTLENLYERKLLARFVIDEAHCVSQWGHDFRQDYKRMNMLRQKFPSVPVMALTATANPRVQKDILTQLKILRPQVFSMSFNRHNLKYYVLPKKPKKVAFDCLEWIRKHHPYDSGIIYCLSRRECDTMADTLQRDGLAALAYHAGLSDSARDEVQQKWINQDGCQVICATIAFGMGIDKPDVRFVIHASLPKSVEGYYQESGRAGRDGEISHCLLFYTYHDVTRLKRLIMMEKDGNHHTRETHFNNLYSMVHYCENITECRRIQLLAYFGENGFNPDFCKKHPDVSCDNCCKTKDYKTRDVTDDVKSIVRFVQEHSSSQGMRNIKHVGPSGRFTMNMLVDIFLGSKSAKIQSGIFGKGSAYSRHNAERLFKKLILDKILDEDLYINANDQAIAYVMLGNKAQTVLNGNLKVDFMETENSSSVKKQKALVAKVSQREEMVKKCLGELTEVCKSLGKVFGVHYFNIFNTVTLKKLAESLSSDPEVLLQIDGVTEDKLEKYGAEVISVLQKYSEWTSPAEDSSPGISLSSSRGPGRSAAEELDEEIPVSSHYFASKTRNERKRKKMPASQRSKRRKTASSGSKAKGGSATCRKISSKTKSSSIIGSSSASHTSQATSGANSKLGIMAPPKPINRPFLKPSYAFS
Chain of WRN K577M (Q14191 whole entry K577M): as the sequence (Q14191 whole entry) above, with K577M counted along it

B1: dsTeR63 partial duplex (dsDNA)
DNA 1: GGTTAGGGTTAGGGTTAGGGTTAGGGTTAGTTAGGGTTAGGGTTAGGGTTAGGGGCGATTGAT
DNA 2: ATCAATCGCCCCTAACCC
Usually Kd stands for the constant that tells how readily two partners part at equilibrium. As to B1, the dissociation constant Kd with WRN [1] (label: 5'-32P on strand 2, 18 bp, 45 nt 5' tail on strand 1) was 7.6 ± 2.9 nM.

B2: G'2 TeR63 quadruplex (structured_DNA)
DNA: B1 DNA 1
For B2, the binding result with WRN [2] is “binds”.

Regarding GGTTAGGGTTAGGGTTAGGGTTAGGGTTAGTTAGGGTTAGGGT (structured_DNA) [G'2 TeR43 quadruplex], in the data set with WRN K577M, the binding result was “binds”. For the same molecule, in the data set with WRN [3] (G4 dimer of 2 strands, described as antiparallel), the Kd is 0.26 ± 0.08 nM.

B3: Splayed arm DNA (dsDNA)
DNA 1: CGCGCCGAATTCCCGCTAGCAATATTCTGCAGCCAAGCTTCCGCGC
DNA 2: GGCGAACTGCCATTCGCACTTACACTGCTAGCGGGAATTCGGCGCG
In the case of B3, the Kd with WRN [1] (label: 5'-32P on strand 1, fork) stood at 6.2 ± 1.3 nM. Regarding TGGACCAGACCTAGCAGCTATGGGGGAGCTGGGGAAGGTGGGAATGTGA (structured_DNA) [G4 IgG quadruplex], the dissociation constant Kd in the data set with BLM was 7 ± 2.9 nM; with WRN [3] (G4 tetramer of 4 parallel strands) it was 3.4 ± 0.4 nM.

B4: 20/46 partial duplex (dsDNA)
DNA 1: CGCTAGCAATATTCTGCAGC
DNA 2: GCGCGGAAGCTTGGCTGCAGAATATTGCTAGCGGGAAATCGGCGCG
modifications: 3'-terminal inverted dC on the 20-mer
On to B4, for which the Kd in the data set with WRN [1] (label: 5'-32P on strand 1, 20 bp, 13 nt 5' and 13 nt 3' tails on strand 2) amounted to 2.3 ± 1.3 nM.

B5: Bubble DNA (dsDNA)
DNA 1: B4 DNA 2 with A38T
DNA 2: CGCGCCGAATTCCCGCTAGTGGCGCCTTGCAGCCAAGCTTCCGCGC
As for B5, in the data set with WRN [1] (label: 5'-32P on strand 1, blunt, 8 nt non-complementary central bubble), the Kd turned out to be 24.7 ± 3.5 nM.
